Experimental data from US8871276B2, “Beta-casein assemblies for mucosal delivery of therapeutic bioactive agents” (Technion Research and Development Foundation Ltd., priority 2008, dated 2014).

How the values were obtained:
Cryo-TEM of micelles = format: physicochemical
Method: Specimens were prepared either in an automated vitrification device (Vitrobot, FEI, The Netherlands) or in the controlled environment vitrification system (CEVS) (Bellare et al. Electron Microsc. Technique, 1988, 10; 87-111) at 24° C. and 100% relative humidity to avoid loss of volatiles. Using the latter, the solutions were incubated in the CEVS at the desired temperature for 1 h. Then, a 7 μL drop of each solution was placed on a TEM copper grid covered with a perforated carbon film (Pelco International) and blotted with filter paper to form a thin liquid film of the sample (100-200 nm thick). The thinned sample was plunged into liquid ethane at its freezing temperature (−183° C.) to form a vitrified specimen and then transferred to liquid nitrogen ([…]) for storage. Some of the vitrified specimens were examined in a Philips CM120 transmission electron microscope. (Philips, The Netherlands) operating at an accelerating voltage of 120 kV. An Oxford CT3500 (Oxford Instruments) cryo-specimen holder that maintained the specimens below −175° C. during sample transfer and observation Other specimens were examined in a Tecnai 12 G2 TEM (FEI) using a Gatan 626 cryo-holder. Specimens were studied in a low-dose imaging mode to minimize beam exposure and electron beam radiation damage.
Images were recorded digitally on a cooled Gatan MultiScan 791 CCD camera using DigitalMicrograph 3.1 software (Gatan) in the low-dose imaging mode to minimize beam exposure and electron-beam radiation damage. Alternatively, images were recorded in the Tecnai on a high-resolution 2 k×2 k Ultrascan 1000 cooled CCD (Gatan, UK), using the Digital Micrograph 3.6 software (Gatan, UK).
The structural characteristics of the micelles in the two pH environments were studied by cryo-TEM and SAXS (Small Angle X-ray Scattering). Cryo-TEM was used to determine the shape of the micelles and to estimate their dimensions between 4 and 40° C. This information was further used to accurately calculate the micelles' dimensions from the SAXS data, and to study how the size and shape are affected by temperature. […]

[1] = Small angle X-ray scattering (SAXS) of micelles; format: physicochemical
Method: The small angle X-ray scattering equipment consisted of a SAXSess camera (Anton-Paar, Graz, Austria) connected to an X-ray generator (Philips, PW 1730/10) operating at 40 kV and 50 mA with a sealed-tube Cu anode. A Gael mirror was used to convert the divergent polychromatic X-ray beam into a focused line-shaped beam of Cu Kα radiation (λ=0.154 nm). The 2D scattering pattern was recorded by a PI-SCX fused fiber optic taper CCD camera from Princeton Instruments, which is a division of Roper Scientific, Inc. (Trenton, N.J., USA). The used CCD detector features a 2084×2084 array with 24×24 μm pixel size (chip size: 50×50 mm). The CCD was operated at −30° C. with 10° C. water-assisted cooling to reduce the thermally generated charge. Cosmic ray correction and background subtraction were performed on the 2D image before further data processing. The 2D image was integrated into the one-dimensional scattering function within a band of 10 mm. The measurement time was 30 min for each scattering curve (6 images of 5 minutes were taken to assist the cosmic ray correction).
The molecular weight of the scattering aggregates were calculated according to Eq. 1:
[formula] where M is the molecular weight, dΣ(0)/dΩ (cm^−1) the forward scattering intensity at q=0, c (g/cm^3) the β-casein concentration, NA the Avogadro number, and ΔρM (cm/g) the scattering length difference per mass, given by: ΔρM=Δρ ν (2)
The scattering length difference Δρ (cm^−2) was calculated using the known chemical composition of the protein and the solvent, and ν (cm^3/g), the specific volume of the protein in the solution that was calculated via density measurement of the solvent and the solution. The micelle aggregation number was then calculated by dividing the molecular weight of the micelles determined with Eq. 1, by the molecular weight of a single protein molecule.
For a particle of arbitrary shape with a scattering density difference of Δρ(r), the pair distance distribution function p(r) (PDDF) is given by: p(r)=r^2Δ ρ^2(r) (3) where Δ ρ^2(r) is the convolution square of Δρ(r) averaged for all directions in space. The PDDF is related to the scattered intensity l(q) by a Fourier transformation, and it enables the determination of the overall shape and size of the scattering objects.
[formula] λ is the wavelength of the incident radiation and θ is the angle between the scattered and incident beam. The function ƒ(r)=p(r)/r (6) is useful to identify flat plate-like particles, although it has no direct physical meaning. For lamellae, this function starts with a linearly increasing part and becomes almost flat when r is equal to the thickness of the lamella. For flat particles with a finite base area, the outer part decreases linearly because of boundary losses. The thickness of the lamella can then be read from the transition point.
The structural characteristics of the micelles in the two pH environments were studied by cryo-TEM and SAXS (Small Angle X-ray Scattering). Cryo-TEM was used to determine the shape of the micelles and to estimate their dimensions between 4 and 40° C. This information was further used to accurately calculate the micelles' dimensions from the SAXS data, and to study how the size and shape are affected by temperature. SAXS measurements also provided the critical micelle concentration (CMC) and the micelle aggregation numbers as a function of temperature. Experiments were performed in the concentration range of 0.1-40 mg/mL protein, at low pH (between 2.1 and 2.6) in dilute lactic acid solution (6 wt %) or HCl and in aqueous solutions at pH 6.7-7.3 in absence of salts or the presence of up to 0.1M NaCl.
SAXS measurements were used to determine the shape and dimensions of the micelles at low pH more precisely, and to evaluate the micelle molecular weight (i.e., the aggregation number). The scattering curves of 20 mg/mL β-casein in lactic acid solution (pH 2.6, IS 0.0022) at different temperatures are shown in FIG. 3a. […]

[2] = lactic acid solution pH 2.6, 4-40 °C
[3] = 1 wt % β-casein, empty or loaded 1:8 protein:celecoxib, pH ~7

B1: β-casein: bovine β-casein self-assembled into unloaded micelles in acidic or neutral buffer (protein, UniProt P02666 16-224, looked up)
Beta-casein: RELEELNVPGEIVESLSSSEESITRINKKIEKFQSEEQQQTEDELQDKIHPFAQTQSLVYPFPGPIPNSLPQNIPPLTQTPVVVPPFLQPEVMGVSKVKEAMAPKHKEMPFPKYPVEPFTESQSLTLTDVENLHLPLPLLQSWMHQPHQPLPPTVMFPPQSVLSLSQSKVLPVPQKAVPYPQRDMPIQAFLLYQEPVLGPVRGPFPIIV
modifications: self-assembled micelles
notes: bovine β-casein self-assembled into unloaded micelles in acidic or neutral buffer
Cryo-TEM of micelles; hepes buffer pH ~7
  Maximum dimension of empty micelles (cryo-TEM): about 22 nm
Cryo-TEM of micelles; [2]
  Micelle surface length (cryo-TEM): 20-25 nm
  Micelle thickness (cryo-TEM): 3-4 nm
[1]; 20 mg/mL, pH 2.6, all temperatures 4-40 °C
  Maximum micelle dimension (SAXS PDDF): 35-40 nm
[1]; [3]
  Rg (from Guinier apr.): 7.8 nm
  V, from a, b: 2410 nm^3
[1]; pH 2.6, 4-40 °C
  Micelle Dimensions: diameter: 25 nm in
[1]; pH 2.6, 4 °C
  Micelle Shape: disc
  Nagg: 8
[1]; pH 2.6, 4 °C, concentrations of 0.5 wt % and below
  Nagg: approximately 2
[1]; pH 2.6, 16 °C
  Micelle Shape: disc
  Nagg: 10
[1]; pH 2.6, 25 °C
  Micelle Shape: disc
  Nagg: 11
[1]; pH 2.6, 25 °C, by SAXS
  CMC: 0.1-0.2 wt %
[1]; pH 2.6, 40 °C
  Micelle Shape: disc
  Nagg: 9
